The labels stand for the following.
B1: GST-Rho1 (enzyme)
chain: MATELRRKLVIVGDGACGKTCLLIVFSKGTFPEVYVPTVFENYVADVEVDGRHVELALWDTAGQEDYDRLRPLSYPDSHVILICFAVDSPDSLDNVQEKWISEVLHFCSSLPILLVACKADLRNDPKIIEELSKTNQHPVTTEEGQAVAQKIGAYKYLECSAKTNEGVREVFESATRAAMLKHKPKVKPSSGTKKKKRCILL
B2: GST-Rho4 (enzyme)
chain: MSAFKKSGSKSETSKKLVVVGDGGCGKTCLLIVFSSGTFPERYVPTVFENYITDITYGPNSKVIELALWDTAGQEEYDRLRPLSYPNSNVILLCFSIDCPASLNNVTEKWYPEVQHFCPRTPIVLVGLKADLRKDRNATEVLRTQGLTPVTYQQAQSVALSMNAPYVECSAKENTGVNEVFQLAVGLTIKKSFSFSKKSCVIL
B3: GST-Rho5 (enzyme)
chain: MTTELRRKLVIVGDGACGKTCLLIVFSKGTFPEVYVPTVFENYVADVEVDGRHIELALWDTAGQEDYDRLRPLSYPDSHVVLICFSVDAPESLDNVQEKWISEVLHFCSNLPILLVGCKVDLRNDPKTIEELSKTSQKPITFEEGQVVAQKIGAYKYLECSAKLNEGVNEVFETAARASMLKFKPASVPKTKKKKHCILL

We go through 3 molecules from article PMC3806657 (Molecular Biology of the Cell, 2013).

For the test, the target named is T1, 6His-tagged GEF domain of Gef2 (aa 211-600) (S. pombe, UniProt Q09733 211-600).
T1 sequence: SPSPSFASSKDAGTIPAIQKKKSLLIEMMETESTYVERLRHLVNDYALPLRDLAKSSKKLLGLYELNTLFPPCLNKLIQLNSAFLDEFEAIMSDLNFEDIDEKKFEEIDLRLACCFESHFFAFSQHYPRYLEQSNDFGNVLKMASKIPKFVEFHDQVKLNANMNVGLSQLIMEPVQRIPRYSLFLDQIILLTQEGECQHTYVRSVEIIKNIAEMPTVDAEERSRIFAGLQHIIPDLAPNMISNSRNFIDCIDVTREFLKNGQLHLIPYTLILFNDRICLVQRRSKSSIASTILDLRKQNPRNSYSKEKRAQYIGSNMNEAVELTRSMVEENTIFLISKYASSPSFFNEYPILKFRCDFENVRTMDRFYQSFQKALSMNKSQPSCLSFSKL
The experiment in a line: pull-down.
Take B1: the binding result is given as “binds”.

Take B2: the binding result is “binds”. With B3 the entry was “binds”.
